The target in this experiment is T1, H4R-Nluc (human, UniProt Q9H3N8-1 1-390).
T1 construct: histamine H4 receptor (H4R), human; Nluc fused in frame to the intracellular C-terminal tail; also called H4R-Nluc/pcDEF3; human H4R-Nluc fusion; source: HEK293T, transiently transfected, in living cells; not shown: NanoLuc (Nluc), C-terminal, kept
In words: FRET or BRET; saturation BRET in living HEK293T cells; constant H4R-Nluc donor (12.5 ng) with 0-500 ng mVenus-tagged TSPAN4 acceptor plasmid; HBSS, 37 °C; vehicle or 10 µM histamine; one site-specific binding fit. The note with it: partners not purified. On the technique in general: Bioluminescence resonance energy transfer reports proximity on the nanometre scale.

Experimental findings from PMC8394291, “Identification of TSPAN4 as Novel Histamine H4 Receptor Interactor” (Biomolecules, 2021) are described below.

T1 sequence (Q9H3N8 whole entry, the tested form may be a part): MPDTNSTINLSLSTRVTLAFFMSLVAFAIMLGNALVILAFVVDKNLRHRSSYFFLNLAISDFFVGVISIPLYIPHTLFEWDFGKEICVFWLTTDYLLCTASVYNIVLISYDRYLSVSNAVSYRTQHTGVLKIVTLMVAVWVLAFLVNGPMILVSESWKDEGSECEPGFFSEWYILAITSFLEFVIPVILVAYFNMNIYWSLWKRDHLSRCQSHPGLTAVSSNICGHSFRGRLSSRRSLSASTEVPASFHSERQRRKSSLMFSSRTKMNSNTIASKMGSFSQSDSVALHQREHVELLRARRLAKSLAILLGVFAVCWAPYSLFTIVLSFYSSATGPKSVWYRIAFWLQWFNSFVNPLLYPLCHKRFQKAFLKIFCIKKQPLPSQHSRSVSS

B1: TSPAN4-mVenus (natural protein, human, UniProt O14817 1-238, looked up)
chain: MARACLQAVKYLMFAFNLLFWLGGCGVLGVGIWLAATQGSFATLSSSFPSLSAANLLIITGAFVMAIGFVGCLGAIKENKCLLLTFFLLLLLVFLLEATIAILFFAYTDKIDRYAQQDLKKGLHLYGTQGNVGLTNAWSIIQTDFRCCGVSNYTDWFEVYNATRVPDSCCLEFSESCGLHAPGTWWKAPCYETVKVWLQENLLAVGIFGLCTALVQILGLTFAMTMYCQVVKADTYCA
notes: tetraspanin 4 (TSPAN4), human; stop codon replaced by SpeI-NotI sites coding for a TSAAA linker, mVenus at the intracellular C-terminus; also called TSPAN4-mVenus/pcDEF3; source: HEK293T, transiently transfected, in living cells; not shown: mVenus (with TSAAA linker), C-terminal, kept
Regarding B1, the “BRET50 (vehicle)” value came to 0.45 mVenus/Nluc ratio and the “BRET50 (with 10 µM histamine)” value turned out to be 0.68 mVenus/Nluc ratio.

B2: mVenus-TSPAN4 (natural protein, human, UniProt O14817 2-238, looked up)
chain: ARACLQAVKYLMFAFNLLFWLGGCGVLGVGIWLAATQGSFATLSSSFPSLSAANLLIITGAFVMAIGFVGCLGAIKENKCLLLTFFLLLLLVFLLEATIAILFFAYTDKIDRYAQQDLKKGLHLYGTQGNVGLTNAWSIIQTDFRCCGVSNYTDWFEVYNATRVPDSCCLEFSESCGLHAPGTWWKAPCYETVKVWLQENLLAVGIFGLCTALVQILGLTFAMTMYCQVVKADTYCA
notes: tetraspanin 4 (TSPAN4), human; start codon replaced by SpeI-NotI sites coding for a TSAAA linker, mVenus at the intracellular N-terminus; also called mVenus-TSPAN4/pcDNA3.1; source: HEK293T, transiently transfected, in living cells (BRET) and in lysate (co-IP); not shown: mVenus (with TSAAA linker), N-terminal, kept
Turning to B2, the “BRET50 (vehicle)” value was determined as 0.79 mVenus/Nluc ratio and the “BRET50 (with 10 µM histamine)” value turned out to be 0.92 mVenus/Nluc ratio.
